The target in experiment [1] is T1, hCD22 fragment Bin 1, IVR1 (aa1-135), displayed on yeast cells (human, UniProt P20273 20-154).
T1 construct: range 1-135; Range is counted on the mature ECD, not on the UniProt entry; on P20273 it would be 20-154 (my arithmetic); also called CD22 Sub-Domain 1; not shown: Aga2-HA display fusion partner of vector pPNL6; MYC tag
T1 sequence (looked up): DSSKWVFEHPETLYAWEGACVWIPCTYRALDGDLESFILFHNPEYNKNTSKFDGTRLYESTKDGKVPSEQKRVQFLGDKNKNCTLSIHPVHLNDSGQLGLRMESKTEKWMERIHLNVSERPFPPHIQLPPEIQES
As to the kind of experiment: yeast display cell ELISA. The procedure:
(§1) The YSD vector (pPNL6) was from The Pacific Northwest National Laboratory, USA. […] The HRP activity was assayed with substrate TMB (tetramethyl benzidine) according to the manufacture’s conditions and read at OD₄₅₀.
(§2) The wells that gave rise to OD₄₅₀ above 0.25 were highlighted, indicating significant antibody-antigen interactions. All the sdAbs tested except hCd22_1ug-14 were assigned to specific Bin(s).
(In an ELISA, binding on a coated surface is turned into a signal by an enzyme label.)

Experiment [2] has as its target T2, hCD22 fragment Bin 2, IVR2 (aa111-230), displayed on yeast cells (human, UniProt P20273 130-249).
T2 construct: range 111-230; Range is counted on the mature ECD, not on the UniProt entry; on P20273 it would be 130-249 (my arithmetic); not shown: Aga2-HA display fusion partner of vector pPNL6; MYC tag
T2 sequence (looked up): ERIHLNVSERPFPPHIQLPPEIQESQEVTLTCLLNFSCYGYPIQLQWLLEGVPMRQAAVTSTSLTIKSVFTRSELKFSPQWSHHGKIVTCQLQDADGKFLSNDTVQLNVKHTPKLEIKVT
As to the kind of experiment: yeast display cell ELISA. How it is done:
as §1, §2

Experiment [3] deals with T3, hCD22 fragment Bin 3, IVR3 (aa211-317), displayed on yeast cells (human, UniProt P20273 230-336).
T3 construct: Range is counted on the mature ECD, not on the UniProt entry; on P20273 it would be 230-336 (my arithmetic); not shown: Aga2-HA display fusion partner of vector pPNL6; MYC tag
T3 sequence (looked up): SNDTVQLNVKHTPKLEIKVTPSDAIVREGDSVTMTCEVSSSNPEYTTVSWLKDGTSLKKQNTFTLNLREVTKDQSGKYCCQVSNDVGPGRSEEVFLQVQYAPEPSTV
As to the kind of experiment: yeast display cell ELISA. How it is done:
as §1, §2

The target of experiment [4] is T4, hCD22 fragment Bin 4, IVR4 (aa303-405), displayed on yeast cells (human, UniProt P20273 322-424).
T4 construct: Range is counted on the mature ECD, not on the UniProt entry; on P20273 it would be 322-424 (my arithmetic); also called CD22 Sub-Domain 4; not shown: Aga2-HA display fusion partner of vector pPNL6; MYC tag
T4 sequence (looked up): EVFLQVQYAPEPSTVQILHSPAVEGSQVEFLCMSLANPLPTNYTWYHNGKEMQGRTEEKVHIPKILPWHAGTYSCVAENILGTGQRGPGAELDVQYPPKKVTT
As to the kind of experiment: yeast display cell ELISA. The procedure:
as §1, §2

The target in experiment [5] is T5, hCD22 fragment Bin 5, IVR5 (aa391-490), displayed on yeast cells (human, UniProt P20273 410-509).
T5 construct: range 391-490; Range is counted on the mature ECD, not on the UniProt entry; on P20273 it would be 410-509 (my arithmetic); not shown: Aga2-HA display fusion partner of vector pPNL6; MYC tag
T5 sequence (looked up): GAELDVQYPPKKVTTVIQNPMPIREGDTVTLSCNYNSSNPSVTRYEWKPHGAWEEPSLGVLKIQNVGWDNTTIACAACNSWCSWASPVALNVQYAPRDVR
As to the kind of experiment: yeast display cell ELISA. How it is done: as §1, §2

In experiment [6] the target is T6, full-length hCD22-ECD (668aa) displayed on yeast cells (human, UniProt P20273 20-687).
T6 construct: extracellular domain; Yeast surface display fusion Aga2-HA-(insert)-MYC; also called Bin 8; CD22-ECD Full lenght; not shown: Aga2-HA display fusion partner of vector pPNL6; MYC tag
T6 sequence (looked up): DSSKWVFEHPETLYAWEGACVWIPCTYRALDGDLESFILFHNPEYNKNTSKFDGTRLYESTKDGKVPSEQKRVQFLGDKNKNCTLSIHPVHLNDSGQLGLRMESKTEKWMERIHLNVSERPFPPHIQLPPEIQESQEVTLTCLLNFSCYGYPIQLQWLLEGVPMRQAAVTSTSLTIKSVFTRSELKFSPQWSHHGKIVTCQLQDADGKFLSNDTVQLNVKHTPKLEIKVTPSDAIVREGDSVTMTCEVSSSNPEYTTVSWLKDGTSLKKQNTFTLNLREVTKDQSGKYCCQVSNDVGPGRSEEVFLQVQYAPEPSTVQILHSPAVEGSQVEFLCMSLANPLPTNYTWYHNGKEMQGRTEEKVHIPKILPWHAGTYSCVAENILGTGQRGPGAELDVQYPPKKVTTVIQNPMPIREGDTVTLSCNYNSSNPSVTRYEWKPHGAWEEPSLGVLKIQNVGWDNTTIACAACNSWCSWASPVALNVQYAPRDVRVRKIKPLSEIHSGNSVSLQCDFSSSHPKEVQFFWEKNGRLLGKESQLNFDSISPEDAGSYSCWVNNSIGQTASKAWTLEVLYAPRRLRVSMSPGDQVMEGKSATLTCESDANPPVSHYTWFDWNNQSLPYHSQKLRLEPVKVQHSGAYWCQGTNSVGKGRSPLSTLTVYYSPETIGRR
As to the kind of experiment: yeast display cell ELISA, biotinylated sdAb 250 nM. How it is done: as §1, §2

B1: hCD22pas-64 (VHH)
VHH: QVQLVESGGGLVQAGGSLRLSCAASGSTFSLNTMAWYRQAPGNQREYVAAASSDGYTNYADSVRGRFTISRDNDKNTMYLQMNSLRPEDTAVYYCTWGTGRFADYIYWGQGTQVTVSS
modifications: single biotin at the VHH C-terminal (biotinylation signal sequence)
notes: llama VHH, expressed in E. coli TG1, IMAC purified, monomeric SEC fraction; also called VHH # 25; 7-hCD22 pas-64
As to B1, the binding result in experiment [1], in experiment [2], in experiment [3], in experiment [4] and in experiment [5] was “no binding (tested: OD450 not above 0.25; sdAb 250 nM)” in each case.

B2: hCD221ug-10 (VHH)
VHH: QVQLVESGGGLVQAGGSLSVSCTASESTFSIMMGWFRQAPGKQREMVAVINSAGSTNYADSAEGRFTISRDLAKKTVSLQMNSLKPEDTAVYYCYVDGYFGQGTQVTVSS
modifications: single biotin at the VHH C-terminal (biotinylation signal sequence)
notes: llama VHH, expressed in E. coli TG1, IMAC purified, monomeric SEC fraction; also called VHH # 23; 5-hCD22 1ug-10
In the case of B2, the binding result in experiment [1], in experiment [2], in experiment [3], in experiment [4] and in experiment [5] was “no binding (tested: OD450 not above 0.25; sdAb 250 nM)” in each case. Further, the OD450 in experiment [6] turned out to be 0.332 OD450.

B3: hCD221ug-61 (VHH)
VHH: QVQLVESGGGLVQAGGSLRLSCAASMSSFSQYVMYWYRQAPGKQRELVATITSYSNTNYADSVKGRFTISRDNAKSIAYLQMDSLKPEDTAVYYCNAQYGSTFIRNHWDDWGQGTQVTVSS
modifications: single biotin at the VHH C-terminal (biotinylation signal sequence)
notes: llama VHH, expressed in E. coli TG1, IMAC purified, monomeric SEC fraction; also called VHH # 14; 3-hCD22 1ug-61
With B3, the binding result in experiment [1], in experiment [2], in experiment [3], in experiment [4] and in experiment [5] was “no binding (tested: OD450 not above 0.25; sdAb 250 nM)” in each case. This molecule had an OD450 in experiment [6] of 1.48 OD450.

B4: hCD221ug-36 (VHH)
VHH: EVQLVDSGGGLVQAGGSLRVSCEASGITFSRAAMGWYRQRPGKERERVAVVNSDSSTIYADSVKGRFTISRDNAKNTVYLQMNSLEPEDTAVYYCWSPGFGSYWGQGTQVTVSS
modifications: single biotin at the VHH C-terminal (biotinylation signal sequence)
notes: llama VHH, expressed in E. coli TG1, IMAC purified, monomeric SEC fraction; also called VHH # 22; 4-hCD22 1ug-36
With B4, the binding result in experiment [1], in experiment [2], in experiment [3], in experiment [4] and in experiment [5] was “no binding (tested: OD450 not above 0.25; sdAb 250 nM)” each time. The OD450 in experiment [6] came out at 1.42 OD450.

B5: hCD221ug-13 (VHH)
VHH: QVQLVESGGGLVQAGDSLRLSCAGSGGSFSSVTMAWFRQAPGKDREFVAAITWSSPSTYYADSVKGRFTISRDNAKNTVYLQMNSLKPEDTAVYYCAGGRTGRGTSADTDEYNYWGQGTQVTVSS
modifications: single biotin at the VHH C-terminal (biotinylation signal sequence)
notes: llama VHH, expressed in E. coli TG1, IMAC purified, monomeric SEC fraction; also called VHH # 21; 1-hCD22 1ug-13
Regarding B5, the binding result in experiment [1], in experiment [2], in experiment [3] and in experiment [5] was “no binding (tested: OD450 not above 0.25; sdAb 250 nM)” throughout. Further, the OD450 in experiment [6] is 1.19 OD450.

B6: hCD221ug-80 (VHH)
VHH: QVQLVESGGGLVQPGGSLRLSCTFSGFTLDYYVMVWFRQAPGKEREAVSCITSDGVTYYADSVKGRFTISRDNAKNTVYLQMNRVKPEDTAVYYCAVDKPFYDGGIQYTCPVDFDSWGQGAQVTVSS
modifications: single biotin at the VHH C-terminal (biotinylation signal sequence)
notes: llama VHH, expressed in E. coli TG1, IMAC purified, monomeric SEC fraction; also called VHH # 1; 2-hCD22 1ug-80
With B6, the binding result in experiment [2], in experiment [3], in experiment [4] and in experiment [5] was “no binding (tested: OD450 not above 0.25; sdAb 250 nM)” each time. The molecule also registered an OD450 in experiment [6] of 1.81 OD450.

B7: hCD22pas-24 (VHH)
VHH: QVQLVESGGGLVQAGGSLRLSCSASGITSSINSMGWHRQAPGKQRELVASIGRGGSGSTKYADSGKGRFLISRDNNKNILFLEMNSLKPEDTADYYCLEVTTDLSSYWGRGTQVTVSS
modifications: single biotin at the VHH C-terminal (biotinylation signal sequence)
notes: llama VHH, expressed in E. coli TG1, IMAC purified, monomeric SEC fraction; also called VHH # 26; 8-hCD22 pas-24
In the case of B7, the binding result in experiment [1], in experiment [2], in experiment [3], in experiment [4] and in experiment [5] was “no binding (tested: OD450 not above 0.25; sdAb 250 nM)” each time. The OD450 in experiment [6] was determined as 1.18 OD450.

B8: hCD22pas-32 (VHH)
VHH: QVQLVESGGGLVQAGGSLRLSCAVSGRIFRSYVLGWFRQAPGKERELVARIGWSDTYYADSVKGRFTISRDNAKNTVDLQMNSLKPEDTAVYYCAANSPPYGPQRDEFGYWGQGTQVTVSS
modifications: single biotin at the VHH C-terminal (biotinylation signal sequence)
notes: llama VHH, expressed in E. coli TG1, IMAC purified, monomeric SEC fraction; also called VHH # 15; 6-hCD22 pas-32
Take B8: the binding result in experiment [1], in experiment [2], in experiment [3], in experiment [4] and in experiment [5] was “no binding (tested: OD450 not above 0.25; sdAb 250 nM)” each time. Moreover, in experiment [6], the OD450 came to 0.289 OD450.

For the origin of these results see patent US20230265185A1 (NATIONAL RESEARCH COUNCIL OF CANADA, published 2023).
